Data: article doi:10.1101/2022.01.14.476392 (bioRxiv, 2022)

Target: the molecule itself
Test: BLI

B1: diol-dehydratase PduCDE (complex, Salmonella enterica)
chain 1: MRSKRFEALAKRPVNQDGFVKEWIEEGFIAMESPNDPKPSIKIVNGAVTELDGKPVSEFDLIDHFIARYGINLNRAEEVMAMDSVKLANMLCDPNVKRSEIVPLTTAMTPAKIVEVVSHMNVVEMMMAMQKMRARRTPSQQAHVTNVKDNPVQIAADAAEGAWRGFDEQETTVAVARYAPFNAIALLVGSQVGRPGVLTQCSLEEATELKLGMLGHTCYAETISVYGTEPVFTDGDDTPWSKGFLASSYASRGLKMRFTSGSGSEVQMGYAEGKSMLYLEARCIYITKAAGVQGLQNGSVSCIGVPSAVPSGIRAVLAENLICSSLDLECASSNDQTFTHSDMRRTARLLMQFLPGTDFISSGYSAVPNYDNMFAGSNEDAEDFDDYNVIQRDLKVDGGLRPVREEDVIAIRNKAARALQAVFAGMGLPPITDEEVEAATYAHGSKDMPERNIVEDIKFAQEIINKNRNGLEVVKALAQGGFTDVAQDMLNIQKAKLTGDYLHTSAIIVGDGQVLSAVNDVNDYAGPATGYRLQGERWEEIKNIPGALDPNEID
chain 2: MEINEKLLRQIIEDVLRDMKGSDKPVSFNAPAASTAPQTAAPAGDGFLTEVGEARQGTQQDEVIIAVGPAFGLAQTVNIVGLPHKSILREVIAGIEEEGIKARVIRCFKSSDVAFVAVEGNRLSGSGISIGIQSKGTTVIHQQGLPPLSNLELFPQAPLLTLETYRQIGKNAARYAKRESPQPVPTLNDQMARPKYQAKSAILHIKETKYVVTGKNPQELRVAL
chain 3: MNTDAIESMVRDVLSRMNSLQGDAPAAAPAAGGTSRSAKVSDYPLANKHPEWVKTATNKTLDDFTLENVLSNKVTAQDMRITPETLRLQASIAKDAGRDRLAMNFERAAELTAVPDDRILEIYNALRPYRSTKEELLAIADDLENRYQAKICAAFVREAAGLYVERKKLKGDD
Question: With B1 as the protein, how does the Kd read?
Answer: 3.5 µM
